Biological target: DNMT3B MTase domain (residues 569-853), R670Q (human) (UniProt Q9UBC3)

## DNMT3B MTase domain (residues 569-853), R670Q (from UniProt Q9UBC3-1 569-853) (domain or fragment)
  in vitro DNA methylation efficiency of the DNMT3B-DNMT3B complex on CpG DNA, reduction against WT: 3 fold
